Results published in US20250002583A1 (PERSONGEN BIOTHERAPEUTICS SUZHOU, published 2025).

T1: B7-H3 (CD276) Protein, Human, Recombinant (His Tag) (Human, UniProt Q5ZPR3 29-461, limits assumed)
T1 construct: Bought protein; also called CD276-His recombinant protein; CD276 recombinant protein; not shown: His tag
T1 sequence (looked up): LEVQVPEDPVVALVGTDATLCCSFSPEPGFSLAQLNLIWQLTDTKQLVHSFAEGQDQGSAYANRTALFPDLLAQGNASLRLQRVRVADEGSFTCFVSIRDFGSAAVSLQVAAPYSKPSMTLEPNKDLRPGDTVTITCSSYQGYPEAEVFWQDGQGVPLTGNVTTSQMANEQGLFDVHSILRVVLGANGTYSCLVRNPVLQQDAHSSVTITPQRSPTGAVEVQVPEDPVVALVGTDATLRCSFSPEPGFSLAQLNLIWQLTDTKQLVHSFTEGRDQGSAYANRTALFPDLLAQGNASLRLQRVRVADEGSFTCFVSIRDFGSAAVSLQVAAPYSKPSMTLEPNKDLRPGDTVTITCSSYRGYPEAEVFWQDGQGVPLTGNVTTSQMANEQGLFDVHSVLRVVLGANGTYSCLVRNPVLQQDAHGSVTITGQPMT


What follows are binders tested against T1, B7-H3 (CD276) Protein, Human, … (assay: SPR (BiaCore T200), CD276 recombinant protein amine-coupled on CM5 chip, antibody as analyte).

| Kd | koff | kon | Binder |
| --- | --- | --- | --- |
| 70.8 nM | 0.00258 s⁻¹ | 36400 M⁻¹ s⁻¹ | CD276 Chimeric (antibody, V domains shown, Murine variable regions cloned into pcDNA3.1-IgG1Fc (heavy) and pcDNA3.1-IgKc (light); also called human-mouse chimeric antibody; human-murine chimeric antibody) VH: EVTLVESGGGLVKPGGSLKLSCAASGFTFSTYVMSWVRQTPEKRLEWVASILSGGTSFYADNVKGRFTISRENARNILYLQMSSLKSEDTAMYYCVRRYGHDHYYAMDYWGQGTSVTVSS VL: QIVLTQSPANMSASLGERVTMTCAASSSVSSSYLHWYQQKPGSSPKLWIYSTSNLASGVPGRFNGSGSGTSYSLTISSMEAEDAATYYCHQYHRSPWTFGGGTKLEIK |
| 114 nM | 0.00282 s⁻¹ | 24800 M⁻¹ s⁻¹ | CD276T1H1-T1L1 (antibody, V domains shown, Heavy chain variable region cloned into pcDNA3.1-IgG1Fc and light chain variable region into pcDNA3.1-IgKc (IgG1, kappa); also called humanized CD276 antibody (CD276T1H1-T1L1); CD276 humanized antibody) VH: EVQLVESGGGLIQPGGSLRLSCAASGFTFSTYVMSWVRQAPGKGLEWVSSILSGGTSFYADNVKGRFTISRDNSKNTLYLQMNSLRAEDTAVYYCARRYGHDHYYAMDYWGQGTLVTVSS VL: EIVLTQSPATLSLSPGERATLSCAASSSVSSSYLHWYQQKPGLAPRLLIYSTSNLASGIPDRFSGSGSGTDFTLTISRLEPEDFAVYYCQQYHRSPWTFGGGTKVEIK |
| 72.8 nM | 0.00289 s⁻¹ | 39700 M⁻¹ s⁻¹ | CD276T2H1-T2L1 (antibody, V domains shown, Heavy chain variable region cloned into pcDNA3.1-IgG1Fc and light chain variable region into pcDNA3.1-IgKc (IgG1, kappa)) VH: EVQLVESGGGVVRPGGSLRLSCAASGFTFSTYVMSWVRQAPGKGLEWVSSILSGGTSFYADNVKGRFTISRDNAKNSLYLQMNSLRAEDTALYHCARRYGHDHYYAMDYWGQGTTVTVSS VL: DIQMTQSPSTLSASVGDRVTITCAASSSVSSSYLHWYQQKPGKAPKLLIYSTSNLASGVPSRFSGSGSGTEFTLTISSLQPDDFATYYCQQYHRSPWTFGQGTKLEIK |
